Measurements taken from publication PMC6520365, “Structural and functional characterization of the PDZ domain of the human phosphatase PTPN3 and its interaction with the human papillomavirus E6 oncoprotein” (Scientific Reports, 2019).

Experiments:
[1] = molecular target: PDZ domain of the human protein tyrosine phosphatase non-receptor type 3 (PTPN3-PDZ) (human) (UniProt P26045); experiment: AUC; sedimentation velocity, PTPN3-PDZ alone at 25 μM, 20 °C, 42000 rpm; monomer and dimer peaks
p38γ PBM (Homo sapiens) = conditions: cited from earlier work

Chain of PTPN4 PDZ (P29074 514-592): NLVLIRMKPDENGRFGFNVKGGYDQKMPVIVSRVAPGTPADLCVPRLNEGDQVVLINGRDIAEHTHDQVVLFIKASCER

PDZ domain of the human protein tyrosine phosphatase non-receptor type 3 (PTPN3-PDZ) (from UniProt P26045-1 504-913) (domain or fragment)
stoichiometry N [1]: 2

PTPN4 PDZ (from UniProt P29074)
Kd (p38γ PBM (Homo sapiens)): 1.6 µM
